The source of these data is article PMC4675670.

This data set deals with O=C(O)[C@@H]1CCCN1. The data set can be described thus: enzyme kinetics, Km. Format: biochemical, Plasmodium falciparum. Particulars: proline-binding pocket.

Take “cytoplasmic prolyl-tRNA synthetase (PfcPRS, PF3D7_1213800) (Plasmodium falciparum 3D7)”: the Km was 117.0 µM. Next, “cytoplasmic prolyl-tRNA synthetase (PfcPRS, PF3D7_1213800) (Plasmodium falciparum 3D7; L482H)”: 747.7 µM.
